Measured values from patent US20260132464A1, “CIRCULAR RNAS FOR THE DIAGNOSIS AND TREATMENT OF BRAIN DISORDERS” (UNM Rainforest Innovations, priority 2018, published 2026).

B1: circHomer1b: circRNA generated from the backsplicing of exons 2 and 3 of HOMER1 pre-mRNA (nucleic acid, listed as Homo sapiens)
chain: GGAACAACCTATCTTCAGCACTCGAGCTCATGTCTTCCAAATTGACCCAAACACAAAGAAGAACTGGGTACCCACCAGCAAGCATGCAGTTACTGTGTCTTATTTCTATGACAGCACAAGAAATGTGTATAGGATAATCAGTTTAGATGGCTCAAAGGCAATAATAAATAGTACCATCACCCCAAACATGACATTTACTAAAACATCTCAGAAGTTTGGCCAGTGGGCTGATAGCCGGGCAAACACCGTTTATGGATTGGGATTCTCCTCTGAGCATCATCTTTCGAAA
modifications: circular RNA
notes: circRNA generated from the backsplicing of exons 2 and 3 of HOMER1 pre-mRNA
B2: circHomer1a: circRNA derived from exons 2-5 of Homer protein homolog 1 (HOMER1) (nucleic acid, listed as Homo sapiens)
chain: GGAACAACCTATCTTCAGCACTCGAGCTCATGTCTTCCAAATTGACCCAAACACAAAGAAGAACTGGGTACCCACCAGCAAGCATGCAGTTACTGTGTCTTATTTCTATGACAGCACAAGAAATGTGTATAGGATAATCAGTTTAGATGGCTCAAAGGCAATAATAAATAGTACCATCACCCCAAACATGACATTTACTAAAACATCTCAGAAGTTTGGCCAGTGGGCTGATAGCCGGGCAAACACCGTTTATGGATTGGGATTCTCCTCTGAGCATCATCTTTCGAAATTTGCAGAAAAGTTTCAGGAATTTAAAGAAGCTGCTCGACTAGCAAAGGAAAAATCACAAGAGAAGATGGAACTTACCAGTACACCTTCACAGGAATCCGCAGGCGGGGATCTTCAGTCTCCTTTAACACCGGAAAGTATCAACGGGACAGATGATGAAAGAACACCTGATGTGACACAGAACTCAGAGCCAAGGGCTGAACCAACTCAGAATGCATTGCCATTTTCACATAG
modifications: circular RNA
B3: circCUL4A: circRNA biomarker for brain disorders, increased in OFC of SCZ patients (nucleic acid, listed as Homo sapiens)
chain: GTCACGTCCCGTGTGGCTGTGGAGATCTCTGTGTGACTATGGAGGTTTCATCCATGTGGCTCTGAAGGTCTCTGTGTGACTATGGAGGTCGCGTCCCATGTGGCTGTGGAGGTCGCTGTGTGGCTATGGAG
modifications: circular RNA
notes: circRNA biomarker for brain disorders, increased in OFC of SCZ patients
B4: circADAM22: circRNA derived from the epilepsy-related gene ADAM metallopeptidase domain 22 (ADAM22) (nucleic acid, listed as Homo sapiens)
chain: GTGAATGTAAATGCGAGGACACGTGGTCCGGGTGCATAATGGGAGACACTGGCTATTATCTTCCTAAAAAGTTCACCCAGTGTAATATTGAAGAGTATCATGACTTCCTGAATAGTGGAGGTGGTGCCTGCCTTTTCAACAAACCTTCTAAGCTTCTTGATCCTCCTGAGTGTGGCAATGGCTTCATTGAAACTGGAGAGGAGTGTGATTGTGGAACCCCGGCCGAATGTGTCCTTGAAGGAGCAGAGTGTTGTAAGAAATGCACCTTGACTCAAGACTCTCAATGCAGTGACGGTCTTTGCTGTAAAAAGTGCAAGTTTCAGCCTATGGGCACTGTGTGCCGAGAAGCAGTAAATGATTGTGATATTCGTGAAACGTGCTCAGGAAATTCAAGCCAGTGTGCCCCTAATATTCATAAAATGGATGGATATTCATGTGATGGTGTTCAGGGAATTTGCTTTGGAGGAAGATGCAAAACCAGAGATAGACAATGCAAATACATTTGGGGGCAAAAGGTGACAGCATCAGACAAATATTGCTATGAGAAACTGAATATTGAAGGGACGGAGAAGGGTAACTGTGGGAAAGACAAAGACACATGGATACAGTGCAACAAACGGGATGTGCTTTGTGGTTACCTTTTGTGTACCAATATTGGCAATATCCCAAGGCTTGGAGAACTCGATGGTGAAATCACATCTACTTTAGTTGTGCAGCAAGGAAGAACATTAAACTGCAGTGGTGGGCATGTTAAGCTTGAAGAAGATGTAGATCTTGGCTATGTGGAAGATGGGACACCTTGTGGTCCCCAAATGATGTGCTTAGAACACAGGTGTCTTCCTGTGGCTTCTTTCAACTTTAGTACTTGCTTGAGCAGTAAAGAAGGCACTATTTGCTCAGGAAATGGAGTTTGCAGTAATGAGCTGAAGTGTGTGTGTAACAGACACTGGATAGGTTCTGATTGCAACACTTACTTCCCTCACAATGATGATGCAAAGACTGGTATCACTCTGTCTGGCAATGGTGTTGCTGGCACCAATATCATAATAGGCATAATTGCTGGCACCATTTTAGTGCTGGCCCTCATATTAGGAATAACTGCGTGGGGTTATAA
modifications: circular RNA

Experiments:
circHomer1a = circHomer1a expression (circRNA qRT-PCR) after 2 day drug treatment of stem cell-derived mixed neuronal and astrocyte cultures; type: cell-based; details: 2 days treatment, human 6-9 month differentiated stem cell-derived mixed neuronal and astrocyte cultures
From the text: FIG. 6A is a representative bright-field image from 6-9 month differentiated human embryonic stem cell (hESC)-derived mature mixed neuronal and glial cultures.
FIG. 6B is an immunofluorescence image showing the presence of neurons (MAP2, red) and astrocytes (GFAP, green). Scale bar=100 μm.
05, two-tailed one sample t-test. The number of replicates is also shown within the graph.

[1] = test system: OFC of subjects with SCZ and BD; assay: circRNA-specific qRT-PCR in postmortem OFC of SCZ, BD and Control subjects; set-up: species or system human; details: for circRNA expression in OFC, BD patients vs unaffected Controls / circRNA expression in OFC, SCZ patients vs unaffected Controls: qRT-PCR, postmortem OFC
From the text: 05, based on general linear model correcting for RIN, PMI, RI, and brain pH. A schematic showing the multi-exonic nature of circADAM22 is also shown.
In FIGS. 4A-C, E-F **p<. 01, based on a Univariate General Linear Model corrected for RIN, PMI, RI, and brain pH.
A schematic of the exonic nature of circHomer1b is also shown. In all graphs individual SCZ, BD, and Control sample values are shown. ***p<. 001, based on general linear model correcting for RIN, PMI, RI, and brain pH.
(§1) Given that harsh RNAseR treatment can partially digest some circRNAs together with all linear RNAs, thus making circRNA screening semi-quantitative, the present disclosure also provides novel validated and sequence-verified circRNA-specific qRT-PCR primers aimed at the unique circRNA-specific splice junction, which enable the measurement of a subset of dysregulated circRNAs in non RNaseR-treated samples. These primers are shown in FIGS. 3C, 8B, and 14A, B (See also SEQ ID NOS. 2, 3, 5, 6, 8, 9, 11 or 12).

[2] = test system: DLPFC of subjects with SCZ and BD; assay: circRNA-specific qRT-PCR in postmortem DLPFC of SCZ, BD and Control subjects; set-up: species or system human
From the text: In all graphs individual SCZ, BD, and Control sample values are shown.
A schematic of the exonic nature of circHomer1b is also shown.
as §1

[3] = test system: orbitofrontal cortex (OFC) of subjects with Bipolar Disorder; assay: circRNA microarray profiling, OFC of subjects with Bipolar Disorder vs unaffected Controls (Table 3); set-up: species or system human
From the text: (§2) Example of circRNA array raw image is also shown.
(§3) The circRNAs in Tables 3 and 4 were identified by profiling circRNA expression in OFC RNA samples from 34 SCZ, 32 BD, and 34 unaffected control subjects from the Stanley Medical Research Institute.
Additional methods for identifying these brain disorder-associated circRNA biomarkers are discussed below.

[4] = test system: stem cell-derived (iPSC) neuronal cultures from patients with SCZ and BD; assay: circHomer1a levels in iPSC-derived neuronal cultures from SCZ and BD patients vs Control; type: cell-based, human
From the text: 05, two-tailed one sample t-test relative to the Control of the same developmental time-point.
05, two-tailed one sample t-test relative to the Control of the same developmental time-point. In all graphs individual samples are shown.

[5] = test system: OFC of subjects with Schizophrenia; assay: circRNA microarray profiling, OFC of subjects with Schizophrenia vs unaffected controls (Table 4); set-up: species or system human; details: relative to Control fold change of circRNA expression
From the text: as §2
FIG. 1C is a volcano plot showing differential circRNA expression in SCZ patients vs unaffected Controls (x-axis=relative to control log 2 fold changes; y-axis: negative log 10 of the p-values). Vertical lines correspond to >1.25-fold changes, and the horizontal line represents p<. 05. Example of validated circRNAs are shown in the graph.
as §3
All circRNA array experiments used for Tables 1-4 were performed by employing a commercially available circRNA microarray platform that uses 13,617 circRNA splice junction probes designed based on previous RNA sequencing and circRNA annotation data (Service sold by Arraystar Inc.). Analysis of circRNA changes in postmortem brain samples from the OFC of subjects with BD uncovered a subset of differentially expressed circRNAs (Table 3) a subset of which stemmed from genes related to synaptic transmission, neuronal development and migration, and short term memory (FIGS. 1A-C, 2A-B), whereas altered circRNAs in SCZ (Table 4 and FIGS. 1A-C, 2A-B) were associated, among others, with the mitogen-activated protein kinase (MAPK/ERK) and protein kinase B (PKB/AKT) pathways. […]

Molecule	circHomer1a expression relative to Vehicle (circHomer1a)	circRNA expression in OFC, BD patients vs unaffected Controls [1]	circRNA expression in OFC, SCZ patients vs unaffected Controls [1]	circRNA expression in DLPFC, BD patients vs unaffected Controls [2]	also measured
O=C(CCCN1CCC(O)(c2ccc(Cl)cc2)CC1)c1ccc(F)cc1 [Haloperidol]	lack of effect	–	–	–	–
CCCC(CCC)C(=O)O [Valproic acid, valproic acid]	increase	–	–	–	–
B1	–	reduced	reduced	not	–
B2	–	reduced	reduced	reduced	Fold BD OFC ([3]; circRNA expression, OFC of subjects with Bipolar Disorder vs unaffected Controls): 0.6440; correlation of expression with duration of illness ([1]; SCZ and BD patients (FIGS. 4H, 5D; OFC and DLPFC)): positively correlated; correlation of expression with age of onset of disease ([1]; SCZ patients (FIGS. 4G, 5C; OFC and DLPFC)): positively correlated; circRNA expression in DLPFC, SCZ patients vs unaffected Controls ([2]; SCZ): reduced; circHomer1a expression in iPSC neuronal cultures, patients vs Control [4]: reduced
B3	–	unchanged	increased expression	–	Fold SCZ OFC [5]: 1.4626
B4	–	decreased expression	unchanged	–	Fold BD OFC ([3]; circRNA expression in OFC, Bipolar Disorder vs unaffected Controls): 0.5247
